From PMC4509764

Columns and labels:
[1] = biological target: T1, NanR (Clostridium perfringens strain 13) (UniProt P26833); test: competition; conditions: 20 mM HEPES pH 7.6, 1 mM EDTA, 10 mM ([…], room temperature 20 min
T1 sequence: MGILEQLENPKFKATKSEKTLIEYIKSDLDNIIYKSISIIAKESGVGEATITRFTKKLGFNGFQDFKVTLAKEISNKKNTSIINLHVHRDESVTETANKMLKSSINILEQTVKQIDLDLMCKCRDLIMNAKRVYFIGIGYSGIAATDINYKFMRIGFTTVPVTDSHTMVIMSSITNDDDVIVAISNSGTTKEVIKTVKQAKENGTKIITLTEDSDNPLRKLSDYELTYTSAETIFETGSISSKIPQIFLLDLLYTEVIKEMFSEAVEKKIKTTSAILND

[2] = biological target: T1, NanR (Clostridium perfringens strain 13); test: EMSA; conditions: 20 mM HEPES pH 7.6, 1 mM EDTA, 10 mM ([…], room temperature 20 min

Sequence | binding [1] | binding [2]
ATATTTTGATACATGCTCTTTTTTTATGAAATAAATTTTCAAAAACAAAAATTATAGGAATAAAAGTGAAAAAAATATGAATAAAAATGGCTTGAAACATAGGTTGTAGGCATATTTGGAAAAACTAAGAACCATAAAATAGAAAAATATTTTCAAAAAGTATTGAAATTCTGTGGGAAAAGGATTACAATAAAAACATAAAGAAAATAATTTTCAGAAAAAAGGTGATAAAATG (double strand) [nanE promoter probe] | binds | binds
CTTTCAATAATTACCCCTCCTAATTTATTTCATTAGTATTTATTATATGGTTCTTAACTTAATTATAACTTATTTCTAGGGAAAGTTATTATTAATTAGTAGATAAATATAAAATTTGCGTAGTATAAACTGTATTTTATACAATTTTAGTAATATTAAAGCTTATTTAAACGTATACATAATATAAGGTC (double strand) [nanJ promoter probe] |  | binds more weakly
